Measured values reported in patent US20080242590A1, “New Method 706” (ASTRAZENECA AB, priority 2007, published 2008).

Columns and labels:
[1] = test system: amyloid β peptide 1-40 (Aβ40); experiment: Degradation of Aβ40 in human plasma (Example 18); format: biochemical; conditions: 5 μg/ml, 4 hours, 37° C.
Method: Blood from eight individuals (5 females and 3 males) were collected into pre-chilled heparin-plasma tubes at the healthcare centre (AstraZeneca) at two different time points. Plasma was prepared by centrifugation for 20 min at 4° C. at 2500×g within 30 minutes of sampling. Plasma samples were transferred to pre-chilled polypropylene tubes and immediately frozen and stored at −70° C. prior to use. His-Fc-Nep (6 μg/ml) or 5 μg/ml recombinant human Neprilysin (R&D systems) with corresponding vehicles (50 mM Tris-HCl, 150 mM NaCl pH 7.5 or 25 mM Tris-HCl, 0.1 M NaCl pH 8.0) in presence or absence of 10 μM phosphoramidon was incubated with a pool of plasma at 37° C. for 0 and 4 h. A final concentration of 4.7 mM EDTA was added into the tubes before the amount of Aβ40 was analysed using a commercial ELISA kit obtained from Biosource. His-Fc-Nep (6 μg/ml) and commercial human recombinant neprilysin (5 μg/ml) degraded Aβ40 with 33% and 70%, respectively, compared to vehicle after 4 hours incubation at 37° C. The Aβ40 levels were unaffected after addition of 10 μM phosphoramidon (FIG. 4).

[2] = test system: amyloid β peptide 1-40 (Aβ40); experiment: Ex-vivo degradation of Aβ40 in guinea pig plasma; format: biochemical; conditions: 5 μg/ml, 4 hours, 37° C.
Method: Degradation of amyloid β peptide 1-40 (Aβ40) and amyloid β peptide 1-42 (Aβ42) by neprilysin was investigated using heparinized plasma from male Dunkin Hartley guinea pigs, weighing 250-300 g (HBLidkoping ka). Blood was withdrawn from anaesthetized guinea pigs by heart puncture. The blood were collected into prechilled heparin-plasma tubes and centrifuged for 10 min at 4° C. at 3000×g within 20 minutes of sampling. Plasma samples were transferred to pre-chilled polypropylene tubes and immediately frozen on dry ice and stored at −70° C. prior to use. The experiments were performed on a pool of plasma from seven guinea pigs. His-Fc-Nep (6 μg/ml or 208 μg/ml) or 5 μg/ml recombinant human Neprilysin (R&D systems) with corresponding vehicles (50 mM Tris-HCl, 150 mM NaCl pH 7.5 or 25 mM Tris-HCl, 0.1 M NaCl pH 8.0) were incubated with a pool of plasma in presence or absence of 10 μM phosphoramidon (BIOMOL) at 37° C. for 0 and 4 h. A final concentration of 4.7 mM EDTA was added into the tubes before the amount of Aβ40 and Aβ42 was analysed using a commercial ELISA kit obtained from Biosource (Aβ1-40) or Innogenetics (Aβ1-42).

amyloid β 1-40 peptide = experiment: Degradation of amyloid β 1-40 peptide by Fc-Neprilysin and Neprilysin in buffer; format: biochemical; conditions: enzyme 2.4 μg/ml, Aβ 1-40 300 nM, 2.5 hours at 37° C., buffer
Method: The assay is measuring the remaining amyloid β 1-40 peptide (Bachem) concentration following its incubation in the presence of Neprilysin (R&D Systems) or Fc-Neprilysin with or without Neprilysin inhibitor. 100 μl of reaction mixture containing amyloid β 1-40 peptide (final concentrations, 300, 30 or 3 nM) and/or Neprilysin (2.4 μg/ml), and/or Fc-Neprilysin construct (2.4 μg/ml), and/or Phosphoramidone (10 μM) was incubated in a round bottom 96-well polypropylene plate at 37° C. for 2.5 hours. Following incubation, 10 μl of reaction mixture was transferred into Thermo-Fast© 96-well PCR plate (Abgene, UK) containing 10 μl of Standard Diluent (Gyros AB). Amyloid β 1-40 concentration was determined using Gyrolab Workstation LIF system. Biotinylated anti-amyloid β antibodies (6E10; final concentration 50 μg/ml; Signet) were used as capturing antibodies and polyclonal anti-human amyloid β antibodies (44-348; Biosource) labeled with Alexa Fluor 647 dye (Molecular probes) were used as detection antibodies. Amyloid β 1-40 peptide concentration measurement performed according to the manufacturers protocol using Gyrolab Bioaffy™ Software Package Version 1.8 (Gyros AB). Amyloid β 1-40 peptide degradation by Neprilysin was calculated as a percentage of Amyloid β 1-40 peptide left after incubation in the presence of Neprilysin compared to the amyloid β 1-40 peptide concentration in the absence of Neprilysin.

[3] = Pharmacokinetics of Fc-Nep and commercial neprilysin, single i.v. dose (Example 20); format: in vivo; conditions: mice, single i.v. dose 1 mg/kg
Method: The Fc-Nep fusion protein was developed to improve the pharmacokinetic entities of neprilysin with the specific aims to reduce clearance and improve half-life. To test this we have administrated a single i.v. dose of either 1 mg/kg commercial neprilysin or 1 alternatively 5 mg/kg in-house produced Fc-Nep to mice. At set times after dosing blood samples were drawn from the tail vein or by heart puncture at termination. Upon sampling into tubes containing EDTA the aliquots were put on ice. Plasma was prepared by centrifugation within 15 minutes of sampling (typically 1500 g at 4° C. for 10 min) and immediately frozen. Plasma concentrations of Fc-Nep and neprilysin were determined via immunoassays using either anti-Nep for commercial neprilysin or anti-human IgG for Fc-Nep as capture antibodies while both substances were detected via an anti-Nep antibody. Pharmacokinetic parameters are calculated using a software package (WinNonlin, Pharsight Corporation, USA) and in this example experiment the calculated half-life had increased from about 5 minutes for Nep to about 20 hours for Fc-Nep.

[4] = Pharmacokinetics of Fc-Nep and in-house produced Neprilysin, single i.v. dose (Example 27); format: in vivo; conditions: mice, single i.v. dose 10 or 50 nmol enzyme/kg
Method: The Fc-Nep fusion protein was developed to improve the pharmacokinetic entities of neprilysin with the specific aims to reduce clearance and improve half-life. To test this we have administrated a single i.v. dose of 10 or 50 nmol enzyme/kg body weight neprilysin (Nep) or Fc-Nep (1 and 5 mg/kg) to mice. At set times the dose blood samples were drawn from the tail vein or by heart puncture at termination. Upon sampling into tubes containing EDTA the aliquots were put on ice. Plasma was prepared by centrifugation within 15 minutes of sampling (typically 1500 g at 4° C. for 10 min) and immediately frozen. Plasma concentrations of Nep and Fc-Nep were determined via immunoassays using either anti-Nep for Nep or anti-human IgG for Fc-Nep as capture antibodies while both substances were detected via an anti-Nep antibody. Pharmacokinetic parameters are calculated using a software package (WinNonlin, Pharsight Corporation, USA) and in this example experiment the calculated half-life had increased from about 1 day for Nep to about 2.5 weeks for Fc-Nep.

Row | Molecule | Aβ40 degraded compared to vehicle [1] [%] | Aβ40 degraded compared to vehicle [2] [%] | Amyloid β 1-40 peptide degraded (amyloid β 1-40 peptide) [%] | calculated half-life [3] | calculated half-life [4]
1 | Recombinant human Neprilysin: commercially available Recombinant Human Neprilysin (R&D Systems), positive control (protein) YDDGICKSSDCIKSAARLIQNMDATTEPCTDFFKYACGGWLKRNVIPETSSRYGNFDILRDELEVVLKDVLQEPKTEDIVAVQKAKALYRSCINESAIDSRGGEPLLKLLPDIYGWPVATENWEQKYGASWTAEKAIAQLNSKYGKKVLINLFVGTDDKNSVNHVIHIDQPRLGLPSRDYYECTGIYKEACTAYVDFMISVARLIRQEERLPIDENQLALEMNKVMELEKEIANATAKPEDRNDPMLLYNKMTLAQIQNNFSLEINGKPFSWLNFTNEIMSTVNISITNEEDVVVYAPEYLTKLKPILTKYSARDLQNLMSWRFIMDLVSSLSRTYKESRNAFRKALYGTTSETATWRRCANYVNGNMENAVGRLYVEAAFAGESKHVVEDLIAQIREVFIQTLDDLTWMDAETKKRAEEKALAIKERIGYPDDIVSNDNKLNNEYLELNYKEDEYFENIIQNLKFSQSKQLKKLREKVDKDEWISGAAVVNAFYSSGRNQIVFPAGILQPPFFSAQQSNSLNYGGIGMVIGHEITHGFDDNGRNFNKDGDLVDWWTQQSASNFKEQSQCMVYQYGNFSWDLAGGQHLNGINTLGENIADNGGLGQAYRAYQNYIKKNGEEKLLPGLDLNHKQLFFLNFAQVWCGTYRPEYAVNSIKTDVHSPGNFRIIGTLQNSAEFSEAFHCRKNSYMNPEKKCRVW | 70 | 49 | 64 | about 5 minutes | –
2 | Nep: in-house produced Neprilysin (extra-cellular domain only), without Fc (protein, UniProt P08473 52-750, looked up, extracellular domain, in-house produced Neprilysin (extra-cellular domain only), without Fc) extracellular domain: YDDGICKSSDCIKSAARLIQNMDATTEPCTDFFKYACGGWLKRNVIPETSSRYGNFDILRDELEVVLKDVLQEPKTEDIVAVQKAKALYRSCINESAIDSRGGEPLLKLLPDIYGWPVATENWEQKYGASWTAEKAIAQLNSKYGKKVLINLFVGTDDKNSVNHVIHIDQPRLGLPSRDYYECTGIYKEACTAYVDFMISVARLIRQEERLPIDENQLALEMNKVMELEKEIANATAKPEDRNDPMLLYNKMTLAQIQNNFSLEINGKPFSWLNFTNEIMSTVNISITNEEDVVVYAPEYLTKLKPILTKYSARDLQNLMSWRFIMDLVSSLSRTYKESRNAFRKALYGTTSETATWRRCANYVNGNMENAVGRLYVEAAFAGESKHVVEDLIAQIREVFIQTLDDLTWMDAETKKRAEEKALAIKERIGYPDDIVSNDNKLNNEYLELNYKEDEYFENIIQNLKFSQSKQLKKLREKVDKDEWISGAAVVNAFYSSGRNQIVFPAGILQPPFFSAQQSNSLNYGGIGMVIGHEITHGFDDNGRNFNKDGDLVDWWTQQSASNFKEQSQCMVYQYGNFSWDLAGGQHLNGINTLGENIADNGGLGQAYRAYQNYIKKNGEEKLLPGLDLNHKQLFFLNFAQVWCGTYRPEYAVNSIKTDVHSPGNFRIIGTLQNSAEFSEAFHCRKNSYMNPEKKCRVW | – | – | – | – | about 1 day
